Test results published in patent publication US20200270335A1 (Biogen, published 2020).

Legend:
[1] = molecular target: T1, human LRP6 on huLRP6-expressing BaF3 cells (human, UniProt O75581 20-1613); assay: FACS LRP6 binding assay, competition with anti-LRP6 antibody (FIG. 50)
T1 construct: whole, on cells; also called Lipoprotein receptor like protein 6

[2] = molecular target: LRP6 of Super TopFlash (STF, HEK293) cells (UniProt O75581 20-1613, limits assumed); assay: cell-based or functional assay
Sequence of LRP6 of Super TopFlash (STF, HEK293) cells (O75581 20-1613 limits assumed): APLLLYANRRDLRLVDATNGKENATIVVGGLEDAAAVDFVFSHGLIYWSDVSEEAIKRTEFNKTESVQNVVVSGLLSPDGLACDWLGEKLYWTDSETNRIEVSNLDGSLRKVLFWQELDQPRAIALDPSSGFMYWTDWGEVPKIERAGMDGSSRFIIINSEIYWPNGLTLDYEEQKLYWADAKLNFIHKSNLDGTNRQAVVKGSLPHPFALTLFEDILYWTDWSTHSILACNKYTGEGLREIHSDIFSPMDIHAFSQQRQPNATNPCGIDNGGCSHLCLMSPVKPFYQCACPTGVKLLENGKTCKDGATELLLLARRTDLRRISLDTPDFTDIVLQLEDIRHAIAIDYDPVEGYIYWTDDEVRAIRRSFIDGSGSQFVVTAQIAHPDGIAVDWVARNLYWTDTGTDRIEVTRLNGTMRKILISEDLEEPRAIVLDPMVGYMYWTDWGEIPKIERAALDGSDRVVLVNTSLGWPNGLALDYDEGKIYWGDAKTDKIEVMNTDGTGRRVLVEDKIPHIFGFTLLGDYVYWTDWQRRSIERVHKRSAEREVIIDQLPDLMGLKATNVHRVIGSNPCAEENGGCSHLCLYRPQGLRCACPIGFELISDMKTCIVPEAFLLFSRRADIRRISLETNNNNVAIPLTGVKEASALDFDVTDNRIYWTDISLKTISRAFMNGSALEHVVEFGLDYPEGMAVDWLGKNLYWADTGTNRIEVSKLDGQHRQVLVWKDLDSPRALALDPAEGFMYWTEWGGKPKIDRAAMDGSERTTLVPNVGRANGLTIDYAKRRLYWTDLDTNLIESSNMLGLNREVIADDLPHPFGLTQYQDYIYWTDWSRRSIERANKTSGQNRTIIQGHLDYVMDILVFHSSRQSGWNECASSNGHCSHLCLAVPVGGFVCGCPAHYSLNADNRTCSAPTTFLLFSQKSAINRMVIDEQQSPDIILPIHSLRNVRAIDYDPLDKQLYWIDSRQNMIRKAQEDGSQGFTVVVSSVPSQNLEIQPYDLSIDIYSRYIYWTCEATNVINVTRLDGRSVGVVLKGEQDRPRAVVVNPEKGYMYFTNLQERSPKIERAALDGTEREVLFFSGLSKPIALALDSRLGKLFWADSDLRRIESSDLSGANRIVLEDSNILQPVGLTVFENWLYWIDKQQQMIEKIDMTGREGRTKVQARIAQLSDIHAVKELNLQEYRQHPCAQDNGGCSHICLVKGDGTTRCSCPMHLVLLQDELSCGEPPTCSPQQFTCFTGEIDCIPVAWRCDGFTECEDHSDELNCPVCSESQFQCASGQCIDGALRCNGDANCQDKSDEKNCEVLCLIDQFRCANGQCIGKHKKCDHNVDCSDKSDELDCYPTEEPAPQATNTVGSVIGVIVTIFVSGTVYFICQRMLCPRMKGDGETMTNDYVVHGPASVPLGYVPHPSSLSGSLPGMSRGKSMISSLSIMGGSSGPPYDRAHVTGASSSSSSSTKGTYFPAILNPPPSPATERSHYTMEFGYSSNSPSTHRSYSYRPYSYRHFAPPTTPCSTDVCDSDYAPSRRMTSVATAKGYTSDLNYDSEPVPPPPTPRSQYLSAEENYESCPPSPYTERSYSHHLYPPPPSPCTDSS

T1 sequence (O75581 20-1613): as the sequence (O75581 20-1613 limits assumed) above

IC50 [1] [nM] | IC50 in the Wnt signaling Super Top Flash (STF) activity assay [2] [nM] | Binder
20 | ~20 | untagged murine DKK2-C2 from E. coli (ligand, also called E. coli DKK2 C2; non-PEGylated untagged DKK2-C2) GSMPHIKGHEGDPCLRSSDCIDGFCCARHFWTKICKPVLHQGEVCTKQRKKGSHGLEIFQRCDCAKGLSCKVWKDATYSSKARLHVCQKI
326 | – | PEGylated untagged murine DKK2-C2 from E. coli (ligand, monoPEGylated with 20k-PEG-2-methyl proprionaldehyde and sodium cyanoborohydride; site not stated, also called monoPEGylated DKK2 C2; PEGylated version of DKK2 C2) GSMPHIKGHEGDPCLRSSDCIDGFCCARHFWTKICKPVLHQGEVCTKQRKKGSHGLEIFQRCDCAKGLSCKVWKDATYSSKARLHVCQKI
